The source of these data is article PMC8752837 (2022).

One assay has as its target T1, GST-BAK (human).
T1 chain: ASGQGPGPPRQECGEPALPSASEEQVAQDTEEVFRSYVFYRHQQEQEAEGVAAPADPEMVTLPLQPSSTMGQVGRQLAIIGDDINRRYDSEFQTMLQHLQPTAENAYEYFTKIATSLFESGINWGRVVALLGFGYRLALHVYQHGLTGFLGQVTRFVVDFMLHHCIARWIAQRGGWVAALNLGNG
Description: FP.
Molecule Ac-EDIWRNIARHLAQVGDSMDRSI-NH2 [W(0) BID BH3 peptide] had an IC50 of 10.8 µM.
For Ac-EDIIRNIARHLAQVGDSMDRSW-NH2 [W(5) BID BH3 peptide], the IC50 came out at 8.8 µM.
For the molecule Ac-EDIIRNIARHLAQWGDSMDRSI-NH2 [W(3) BID BH3 peptide], the IC50 was determined as 6.6 µM.
For Ac-EDIIRNIARHLAQVGDSYDRSI-NH2 [Y(4) BID BH3 peptide], the concentration for half-maximal inhibition (IC50) was 6.9 µM.
For Ac-EDIIRNIARHLAQFGDSMDRSI-NH2 [F(3) BID BH3 peptide], the IC50 turned out to be 11.3 µM.
As to Ac-EDIIRNIARHLAQMGDSMDRSI-NH2 [M(3) BID BH3 peptide], the IC50 turned out to be 4.6 µM.
In the case of Ac-EDIIRNIARHLAQVGDSMDRSI-NH2 [WT BID BH3 peptide], the IC50 is 12.2 µM.
Same read-out and setting: the figure for Ac-EDIIRNIARHLAQYGDSMDRSI-NH2 [Y(3) BID BH3 peptide] is 6.2 µM; for Ac-EDIIRNIARHLAQVGDSFDRSI-NH2 [F(4) BID BH3 peptide] it is 11.9 µM.
For the molecule Ac-EDIIRNIARHLAQVGDSWDRSI-NH2 [W(4) BID BH3 peptide], it took 11.5 µM to reach half-maximal inhibition (IC50).

The target of another assay is T2, tevBAK (residues 22–186) (human, UniProt Q16611 22-186).
T2 chain: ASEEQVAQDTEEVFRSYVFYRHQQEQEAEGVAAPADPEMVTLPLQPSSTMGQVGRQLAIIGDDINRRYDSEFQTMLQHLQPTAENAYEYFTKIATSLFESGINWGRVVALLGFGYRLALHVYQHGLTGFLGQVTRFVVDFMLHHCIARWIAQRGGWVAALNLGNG
Description: ITC.
As for Ac-EDIIRNIARHLAQWGDSMDRSW-NH2 [W(3)W(5) BID BH3 peptide], the Kd stood at 0.25 µM.
Same read-out and setting: the figure for Ac-EDIIRNIARHLAQVGDSMDRSI-NH2 [WT BID BH3 peptide] is 22.7 µM.
